# In paper doi:10.1101/2024.11.03.621705 (bioRxiv, 2024):
# B1: mouse TRPC5 with a 210-amino-acid C-terminal truncation, with N-terminal 3xFlag tag and MBP (recombinant plasmid FMC5) (domain or fragment, UniProt Q9QX29 1-765, looked up)
# chain: MAQLYYKKVNYSPYRDRIPLQIVRAETELSAEEKAFLSAVEKGDYATVKQALQEAEIYYNVNINCMDPLGRSALLIAIENENLEIMELLLNHSVYVGDALLYAIRKEVVGAVELLLSYRKPSGEKQVPTLMMDTQFSEFTPDITPIMLAAHTNNYEIIKLLVQKRVTIPRPHQIRCNCVECVSSSEVDSLRHSRSRLNIYKALASPSLIALSSEDPILTAFRLGWELKELSKVENEFKAEYEELSQQCKLFAKDLLDQARSSRELEIILNHRDDHSEELDPQKYHDLAKLKVAIKYHQKEFVAQPNCQQLLATLWYDGFPGWRRKHWVVKLLTCMTIGFLFPMLSIAYLISPRSNLGLFIKKPFIKFICHTASYLTFLFMLLLASQHIVRTDLHVQGPPPTVVEWMILPWVLGFIWGEIKEMWDGGFTEYIHDWWNLMDFAMNSLYLATISLKIVAYVKYNGSRPREEWEMWHPTLIAEALFAISNILSSLRLISLFTANSHLGPLQISLGRMLLDILKFLFIYCLVLLAFANGLNQLYFYYETRAIDEPNNCKGIRCEKQNNAFSTLFETLQSLFWSVFGLLNLYVTNVKARHEFTEFVGATMFGTYNVISLVVLLNMLIAMMNNSYQLIADHADIEWKFARTKLWMSYFDEGGTLPPPFNIIPSPKSFLYLGNWFNNTFCPKRDPDGRRRRHNLRSFTERHADSLIQNQHYQEVIRNLVKRYVAAMIRNSKTNEGLTEENFKELKQDISSFRYEVLDLLGNRK
# Biological target: the molecule itself
# Experiment: cryo-EM structure
protein,measurement,value
B1,binding result,binds
